Patent EP1073891B1, “METHOD OF PREDICTING RECEPTOR MODULATING ACTIVITY” (Duke University, priority 1998, dated 1999)
Several values for one entry are separate records, joined by “and”; a condition that tells them apart may be missing. Equal values may be shown once.

Tests used:
ERα = molecular target: T1, ERα (Homo sapiens, UniProt P03372); assay: Phage ELISA / fingerprint on ER immobilized on biotinylated ERE (Examples 2.3-2.5); assay type: binding; design: purchased PanVera Corporation, Madison, WI; key to binding activity, ERα and buffer / binding activity, ERα and estradiol / binding activity, ERα and tamoxifen / binding of peptide, Class Specific Fingerprint on ERα: semiquantitative scale of 0 to 7+; 1+: semiquantitative scale of 0 to 7+; 2+: semiquantitative scale of 0 to 7+; 3+: semiquantitative scale of 0 to 7+; 4+: semiquantitative scale of 0 to 7+; 5+: semiquantitative scale of 0 to 7+; 6+: semiquantitative scale of 0 to 7+; semiquantitative scale of 0 to 7+; settings: for binding activity, ERα and estradiol: ERα and estradiol (1 µM); for binding activity, ERα and tamoxifen: ERα and tamoxifen (4-OH tamoxifen, 1 µM)
T1 sequence (P03372 1-595): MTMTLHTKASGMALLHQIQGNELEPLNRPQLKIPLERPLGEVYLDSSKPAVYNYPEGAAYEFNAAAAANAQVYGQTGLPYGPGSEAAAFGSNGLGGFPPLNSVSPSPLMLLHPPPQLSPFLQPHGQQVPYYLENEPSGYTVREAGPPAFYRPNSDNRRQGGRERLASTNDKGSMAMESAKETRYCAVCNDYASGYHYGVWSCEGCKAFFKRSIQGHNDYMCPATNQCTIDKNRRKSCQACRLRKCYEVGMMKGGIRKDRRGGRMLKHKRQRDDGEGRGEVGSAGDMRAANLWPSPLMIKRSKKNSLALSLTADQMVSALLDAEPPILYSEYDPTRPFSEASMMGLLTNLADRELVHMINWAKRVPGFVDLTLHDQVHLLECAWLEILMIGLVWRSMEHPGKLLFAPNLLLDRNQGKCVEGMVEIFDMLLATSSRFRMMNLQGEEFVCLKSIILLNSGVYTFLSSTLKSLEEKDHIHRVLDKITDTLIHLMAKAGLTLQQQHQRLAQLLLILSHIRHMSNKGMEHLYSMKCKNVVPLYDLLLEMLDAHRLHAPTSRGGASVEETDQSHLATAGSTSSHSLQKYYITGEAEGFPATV

ERβ = ERβ (Homo sapiens, UniProt Q92731); assay: as above; assay type: binding; design: purchased PanVera Corporation, Madison, WI; key: semiquantitative scale of 0 to 7+; 1+: semiquantitative scale of 0 to 7+; 2+: semiquantitative scale of 0 to 7+; 3+: semiquantitative scale of 0 to 7+; 4+: semiquantitative scale of 0 to 7+; 5+: semiquantitative scale of 0 to 7+; 6+: semiquantitative scale of 0 to 7+; semiquantitative scale of 0 to 7+; settings: for binding activity, ERβ and Estradiol: ERβ and Estradiol (1 µM); for binding activity, ERβ and tamoxifen: ERβ and tamoxifen (4-OH tamoxifen, 1 µM)
ERβ, sequence (Q92731 whole entry): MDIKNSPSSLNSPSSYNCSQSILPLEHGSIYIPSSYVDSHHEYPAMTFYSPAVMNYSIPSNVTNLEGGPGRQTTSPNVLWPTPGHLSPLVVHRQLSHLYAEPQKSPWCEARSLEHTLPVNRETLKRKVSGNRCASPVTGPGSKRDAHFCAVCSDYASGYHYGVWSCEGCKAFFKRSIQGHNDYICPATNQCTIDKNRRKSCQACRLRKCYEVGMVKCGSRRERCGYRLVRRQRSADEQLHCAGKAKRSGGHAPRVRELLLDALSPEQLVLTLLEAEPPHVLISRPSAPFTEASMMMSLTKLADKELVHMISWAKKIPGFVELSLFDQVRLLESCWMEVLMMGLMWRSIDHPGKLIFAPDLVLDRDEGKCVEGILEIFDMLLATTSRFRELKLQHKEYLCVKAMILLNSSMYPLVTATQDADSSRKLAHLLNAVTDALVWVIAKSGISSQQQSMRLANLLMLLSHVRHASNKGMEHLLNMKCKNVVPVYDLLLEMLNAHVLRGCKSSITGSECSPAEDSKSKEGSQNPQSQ

[1] = 4-OH Tamoxifen present during binding
[2] = 16a-OH Estrone present during binding
[3] = Clomiphene present during binding
[4] = Estradiol present during binding
[5] = ICI 182,780 present during binding
[6] = Nafoxidine present during binding
[7] = Premarin present during binding
[8] = Progesterone present during binding
[9] = Raloxifene present during binding

## SWDMHQFFWEGVSR [Peptide 2PT]
ERα; [1]
  binding of peptide, Class Specific Fingerprint on ERα: 7+
ERα; [2]
  binding of peptide, Class Specific Fingerprint on ERα: 2+
ERα; [3]
  binding of peptide, Class Specific Fingerprint on ERα: 6+
ERα; DES present during binding
  binding of peptide, Class Specific Fingerprint on ERα: 1+
ERα; [4]
  binding of peptide, Class Specific Fingerprint on ERα: 1+
ERα; Estriol present during binding
  binding of peptide, Class Specific Fingerprint on ERα: 1+
ERα; [5]
  binding of peptide, Class Specific Fingerprint on ERα: 1+
ERα; [6]
  binding of peptide, Class Specific Fingerprint on ERα: 4+
ERα; [7]
  binding of peptide, Class Specific Fingerprint on ERα: 2+
ERα; [8]
  binding of peptide, Class Specific Fingerprint on ERα: 2+
ERα; [9]
  binding of peptide, Class Specific Fingerprint on ERα: 4+
ERα; buffer present during binding
  binding of peptide, Class Specific Fingerprint on ERα: 1+
ERβ; [1]
  binding of peptide, Class Specific Fingerprint on ERβ: 7+
ERβ; [2]
  binding of peptide, Class Specific Fingerprint on ERβ: 1+
ERβ; [3]
  binding of peptide, Class Specific Fingerprint on ERβ: 5+
ERβ; DES present during binding
  binding of peptide, Class Specific Fingerprint on ERβ: 1+
ERβ; [4]
  binding of peptide, Class Specific Fingerprint on ERβ: 1+
ERβ; Estriol present during binding
  binding of peptide, Class Specific Fingerprint on ERβ: 1+
ERβ; [5]
  binding of peptide, Class Specific Fingerprint on ERβ: 1+
ERβ; [6]
  binding of peptide, Class Specific Fingerprint on ERβ: 3+
ERβ; [7]
  binding of peptide, Class Specific Fingerprint on ERβ: 1+
ERβ; [8]
  binding of peptide, Class Specific Fingerprint on ERβ: 1+
ERβ; [9]
  binding of peptide, Class Specific Fingerprint on ERβ: 6+
ERβ; buffer present during binding
  binding of peptide, Class Specific Fingerprint on ERβ: 2+

## SSVASREWWVRELSR [Peptide 15t-β]
ERα
  binding activity, ERα and buffer: 3+
  binding activity, ERα and estradiol: 2+
  binding activity, ERα and tamoxifen: 5+
ERβ
  binding activity, ERβ and Estradiol: 2+
  binding activity, ERβ and buffer: 6+
  binding activity, ERβ and tamoxifen: 7+

## SREGWMGPWRLADSR [Peptide 12t-β]
ERα
  binding activity, ERα and estradiol: 1+
  binding activity, ERα and tamoxifen: 1+
ERβ
  binding activity, ERβ and Estradiol: 7+
  binding activity, ERβ and buffer: 7+
  binding activity, ERβ and tamoxifen: 7+

## SSTSWLHHYLMGTSR [Peptide 8b-β]
ERα
  binding activity, ERα and buffer: 1+
  binding activity, ERα and estradiol: 4+
  binding activity, ERα and tamoxifen: 2+
ERβ
  binding activity, ERβ and Estradiol: 7+
  binding activity, ERβ and buffer: 7+
  binding activity, ERβ and tamoxifen: 1+

## SSPTGHRLLESLLLNSNSR [Peptide 8E-β]
ERα
  binding activity, ERα and buffer: 4+
  binding activity, ERα and estradiol: 6+
  binding activity, ERα and tamoxifen: 3+
ERβ
  binding activity, ERβ and Estradiol: 7+
  binding activity, ERβ and buffer: 5+
  binding activity, ERβ and tamoxifen: 1+

## SSILERLLGGGSAETV [Peptide 9E-β]
ERα
  binding activity, ERα and buffer: 3+
  binding activity, ERα and estradiol: 4+
ERβ
  binding activity, ERβ and Estradiol: 7+
  binding activity, ERβ and buffer: 4+
  binding activity, ERβ and tamoxifen: 1+

## SRPEGSSWLLHYLSR [Peptide 24E-β]
ERα
  binding activity, ERα and buffer: 5+
  binding activity, ERα and estradiol: 6+
  binding activity, ERα and tamoxifen: 4+
ERβ
  binding activity, ERβ and Estradiol: 7+
  binding activity, ERβ and buffer: 5+
  binding activity, ERβ and tamoxifen: 2+

## HSYSSHPLLLSYLWGG [Peptide 23b-β]
ERα
  binding activity, ERα and buffer: 3+
  binding activity, ERα and estradiol: 6+ and 3+
  binding activity, ERα and tamoxifen: 3+
ERβ
  binding activity, ERβ and Estradiol: 7+ and 6+
  binding activity, ERβ and buffer: 7+
  binding activity, ERβ and tamoxifen: 3+ and 7+

## SRLEELLRVGVLTSR [Peptide 6E-β]
ERα
  binding activity, ERα and buffer: 3+
  binding activity, ERα and estradiol: 5+
  binding activity, ERα and tamoxifen: 3+
ERβ
  binding activity, ERβ and Estradiol: 7+
  binding activity, ERβ and buffer: 3+
  binding activity, ERβ and tamoxifen: 1+

## SSQVWPGPWRLVESR [Peptide 14b-β]
ERα
  binding activity, ERα and buffer: 2+
  binding activity, ERα and estradiol: 2+
  binding activity, ERα and tamoxifen: 3+
ERβ
  binding activity, ERβ and Estradiol: 7+
  binding activity, ERβ and buffer: 7+
  binding activity, ERβ and tamoxifen: 7+

## SSRLVPHSFWLDGLMHGSR [Peptide 21t-β]
ERα
  binding activity, ERα and buffer: 3+
  binding activity, ERα and estradiol: 3+
  binding activity, ERα and tamoxifen: 6+
ERβ
  binding activity, ERβ and Estradiol: 3+
  binding activity, ERβ and buffer: 3+
  binding activity, ERβ and tamoxifen: 7+

## SREWEDGFGGRWLSR [Peptide 4t-β]
ERα
  binding activity, ERα and buffer: 2+
  binding activity, ERα and estradiol: 2+
  binding activity, ERα and tamoxifen: 3+
ERβ
  binding activity, ERβ and Estradiol: 7+
  binding activity, ERβ and buffer: 7+
  binding activity, ERβ and tamoxifen: 7+

## SSIPPRSWWLSQLSR [Peptide 19b-β]
ERα
  binding activity, ERα and buffer: 5+
  binding activity, ERα and estradiol: 4+
  binding activity, ERα and tamoxifen: 4+
ERβ
  binding activity, ERβ and Estradiol: 6+
  binding activity, ERβ and buffer: 7+
  binding activity, ERβ and tamoxifen: 7+

## SSYEIPKWALQWLSR [Peptide 34E-β]
ERα
  binding activity, ERα and buffer: 5+
  binding activity, ERα and estradiol: 3+
  binding activity, ERα and tamoxifen: 4+
ERβ
  binding activity, ERβ and Estradiol: 6+
  binding activity, ERβ and buffer: 4+
  binding activity, ERβ and tamoxifen: 2+

## SSGLPPNFERMLKSR [Peptide 6b-β]
ERα
  binding activity, ERα and buffer: 5+
  binding activity, ERα and estradiol: 3+
  binding activity, ERα and tamoxifen: 3+
ERβ
  binding activity, ERβ and Estradiol: 2+
  binding activity, ERβ and buffer: 6+
  binding activity, ERβ and tamoxifen: 2+

## SSISTYHMGEWFYAMLSSR [Peptide 22t-β]
ERα
  binding activity, ERα and buffer: 3+
  binding activity, ERα and estradiol: 4+
  binding activity, ERα and tamoxifen: 6+
ERβ
  binding activity, ERβ and Estradiol: 4+
  binding activity, ERβ and buffer: 5+
  binding activity, ERβ and tamoxifen: 7+

## SRNECIGPWCLTISR [Peptide 13t-β]
ERα
  binding activity, ERα and buffer: 3+
  binding activity, ERα and estradiol: 2+
  binding activity, ERα and tamoxifen: 4+
ERβ
  binding activity, ERβ and Estradiol: 7+
  binding activity, ERβ and buffer: 7+
  binding activity, ERβ and tamoxifen: 7+

## SSTTWRCPEWYCGSR [Peptide 30E-β]
ERα
  binding activity, ERα and buffer: 4+
  binding activity, ERα and estradiol: 3+
  binding activity, ERα and tamoxifen: 3+
ERβ
  binding activity, ERβ and Estradiol: 7+
  binding activity, ERβ and buffer: 6+
  binding activity, ERβ and tamoxifen: 3+

## SSPGSREWFKDMLSR [Peptide 14t-β]
ERα
  binding activity, ERα and buffer: 2+
  binding activity, ERα and estradiol: 2+
  binding activity, ERα and tamoxifen: 7+
ERβ
  binding activity, ERβ and Estradiol: 2+
  binding activity, ERβ and buffer: 3+
  binding activity, ERβ and tamoxifen: 7+

## SSTTMFDFFYERLSR [Peptide 6t-β]
ERα
  binding activity, ERα and buffer: 4+
  binding activity, ERα and estradiol: 4+
  binding activity, ERα and tamoxifen: 6+
ERβ
  binding activity, ERβ and Estradiol: 4+
  binding activity, ERβ and buffer: 7+
  binding activity, ERβ and tamoxifen: 7+

## SSGPFYVGGMLWPADCLSR [Peptide 10t-β]
ERα
  binding activity, ERα and buffer: 4+
  binding activity, ERα and estradiol: 3+
  binding activity, ERα and tamoxifen: 6+
ERβ
  binding activity, ERβ and Estradiol: 2+
  binding activity, ERβ and buffer: 4+
  binding activity, ERβ and tamoxifen: 7+

## SRDWRSGFLYELLSR [Peptide 4E-β]
ERα
  binding activity, ERα and buffer: 6+
  binding activity, ERα and estradiol: 5+
  binding activity, ERα and tamoxifen: 6+
ERβ
  binding activity, ERβ and Estradiol: 7+
  binding activity, ERβ and buffer: 5+
  binding activity, ERβ and tamoxifen: 3+

## SSKLYCLLDESYCSR [Peptide 21b-β]
ERα
  binding activity, ERα and buffer: 6+
  binding activity, ERα and estradiol: 7+
  binding activity, ERα and tamoxifen: 3+
ERβ
  binding activity, ERβ and Estradiol: 7+
  binding activity, ERβ and buffer: 7+
  binding activity, ERβ and tamoxifen: 3+

## SSSGPWRWGLSIESR [Peptide 17b-β]
ERα
  binding activity, ERα and buffer: 2+
  binding activity, ERα and estradiol: 2+
  binding activity, ERα and tamoxifen: 3+
ERβ
  binding activity, ERβ and Estradiol: 2+
  binding activity, ERβ and buffer: 5+
  binding activity, ERβ and tamoxifen: 4+

## SSLKCLLQSSPQKQPFCSR [Peptide 19E-β]
ERα
  binding activity, ERα and buffer: 4+
  binding activity, ERα and estradiol: 5+
  binding activity, ERα and tamoxifen: 3+
ERβ
  binding activity, ERβ and Estradiol: 7+
  binding activity, ERβ and buffer: 4+
  binding activity, ERβ and tamoxifen: 2+
